In patent US20180339041A1 (Kyowa Kirin, published 2018):
“And” between values parts separate entries of the source, which are not always exact repeats. Equal entries are not always repeated.

T1: C-terminally FLAG-tagged human Gas6 recombinant protein (hGas6-F) (human, UniProt Q14393 31-678, gamma-carboxylated glutamic acid residues in the Gla domain (producer cells co-express rat VKOR and human GGCX); positions not given)
T1 construct: also called human Gas6-F; human Gas6 protein
T1 sequence: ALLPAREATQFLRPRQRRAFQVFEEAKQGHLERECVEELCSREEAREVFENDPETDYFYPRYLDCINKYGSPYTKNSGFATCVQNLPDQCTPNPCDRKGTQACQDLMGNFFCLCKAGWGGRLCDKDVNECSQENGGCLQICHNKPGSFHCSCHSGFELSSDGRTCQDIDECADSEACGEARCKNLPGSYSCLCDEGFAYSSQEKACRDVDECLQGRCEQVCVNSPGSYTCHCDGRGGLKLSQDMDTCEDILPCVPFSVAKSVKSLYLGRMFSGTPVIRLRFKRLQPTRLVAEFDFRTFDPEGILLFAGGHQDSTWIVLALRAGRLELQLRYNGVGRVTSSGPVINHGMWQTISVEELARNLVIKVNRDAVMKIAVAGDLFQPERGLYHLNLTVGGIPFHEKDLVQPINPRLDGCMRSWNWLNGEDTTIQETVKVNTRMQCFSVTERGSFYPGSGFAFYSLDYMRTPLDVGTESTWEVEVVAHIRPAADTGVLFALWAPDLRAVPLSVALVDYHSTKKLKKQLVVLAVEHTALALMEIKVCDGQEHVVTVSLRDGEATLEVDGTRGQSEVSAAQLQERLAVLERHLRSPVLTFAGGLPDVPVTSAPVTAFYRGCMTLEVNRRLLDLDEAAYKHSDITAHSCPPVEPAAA


Molecular target: T1, C-terminally FLAG-tagged human Gas6 …
Test: SPR Biacore T100, captured antibody, Gas6 analyte, first test
Procedure: An anti-human IgG antibody was immobilized on a CM5 sensor chip (manufactured by GE Healthcare Japan Corp.) using Human Antibody Capture Kit (manufactured by GE Healthcare Japan Corp.) according to the attached manual. Each test antibody adjusted to 1 μg/mL was added for 10 seconds at a flow rate of 10 μL/min to flow cells. […] The measurement was performed by the […] method. The obtained sensorgram was analyzed using Bia Evaluation Software (manufactured by GE Healthcare Japan Corp.), and the kinetic constant of each antibody was calculated.

Binder | Kd | koff | kon
hzKM5320 LV5HV8 antibody (antibody, V domains shown, Humanized; variant human IgG4 constant region (EU S228P, L235E, R409K), human kappa; also called A-16) VH: QIQLVQSGPELKKPGASVKISCKASGYTFTNYGMNWVKQAPGQGLKWMGWINTETGEPTYSDDFKGRFVFSLDTSVTTAYLQISSLKAEDTATYFCAREDGYYGTLDYWGQGTTVTVSS VL: DIVMTQSPDSLAVSLGERVTINCKASQSVSNDVAWYQQKPGQSPKVLIYYASNRYTGVPDRFSGSGSGTDFTFTISSVQAEDVAVYFCQQDYSSPWTFGQGTKLEIK | < 2.11 nM | 0.000155 s⁻¹ | > 73600 M⁻¹ s⁻¹
hzKM5320 LV6HV8 antibody (antibody, V domains shown, Humanized; variant human IgG4 constant region (EU S228P, L235E, R409K), human kappa; also called A-17) VH: QIQLVQSGPELKKPGASVKISCKASGYTFTNYGMNWVKQAPGQGLKWMGWINTETGEPTYSDDFKGRFVFSLDTSVTTAYLQISSLKAEDTATYFCAREDGYYGTLDYWGQGTTVTVSS VL: DIVMTQSPDSLAVSAGERVTINCKASQSVSNDVAWYQQKPGQSPKVLIYYASNRYTGVPDRFSGSGSGTDFTFTISSVQAEDVAVYFCQQDYSSPWTFGQGTKLEIK | < 2.18 nM | 0.000158 s⁻¹ | > 72500 M⁻¹ s⁻¹
hzKM5320 LV6HV0 antibody (antibody, V domains shown, Humanized; variant human IgG4 constant region (EU S228P, L235E, R409K), human kappa; also called A-09) VH: QVQLVQSGSELKKPGASVKVSCKASGYTFTNYGMNWVRQAPGQGLEWMGWINTETGEPTYSDDFKGRFVFSLDTSVSTAYLQISSLKAEDTAVYYCAREDGYYGTLDYWGQGTTVTVSS VL: DIVMTQSPDSLAVSAGERVTINCKASQSVSNDVAWYQQKPGQSPKVLIYYASNRYTGVPDRFSGSGSGTDFTFTISSVQAEDVAVYFCQQDYSSPWTFGQGTKLEIK | < 3.22 nM | 0.000216 s⁻¹ | > 67200 M⁻¹ s⁻¹
hzKM5321 LV6HV1 antibody (antibody, V domains shown, Humanized; variant human IgG4 constant region (EU S228P, L235E, R409K), human kappa; also called B-22; LV6HV1) VH: QVHLVQSGSELKKPGASVKISCKASGYTFTNYGMNWVRQAPGQGLKWMGWINTNTGEPTYTEEFKGRFVFSLDTSVTTSYLQISTLKAEDTAVYFCARDEGWFVYWGQGTLVTVSS VL: ETTLTQSPSSLSVSTGDRVTITCITSTDIDDDMNWYQQKPGKPPKLLISEGNTLRPGVPSRFSSSGSGTDFTLTISSTQPEDFADYYCLQTDSVPLTFGQGTKVEIK | < 2.35 nM | 0.000239 s⁻¹ | > 102000 M⁻¹ s⁻¹
hzKM5321 LV1aHV0 antibody (antibody, V domains shown, Humanized; variant human IgG4 constant region (EU S228P, L235E, R409K), human kappa; also called B-03; LV1aHV0) VH: QVHLVQSGSELKKPGASVKISCKASGYTFTNYGMNWVRQAPGQGLEWMGWINTNTGEPTYTEEFKGRFVFSLDTSVTTSYLQISTLKAEDTAVYFCARDEGWFVYWGQGTLVTVSS VL: ETTLTQSPSSLSASVGDRVTITCITSTDIDDDMNWYQQKPGKPPKLLISEGNTLRPGVPSRFSGSGSGTDFTLTISSLQPEDFATYYCLQTDSVPLTFGQGTKVEIK | < 3.92 nM | 0.000492 s⁻¹ | > 126000 M⁻¹ s⁻¹

Other lines, results leading:

Kd | koff | kon | Binder
< 1.86 nM | 0.000285 s⁻¹ | > 153000 M⁻¹ s⁻¹ | hzKM5321 LV3HV0 antibody (antibody, V domains shown, Humanized; variant human IgG4 constant region (EU S228P, L235E, R409K), human kappa; also called B-06; LV3HV0) VH: QVHLVQSGSELKKPGASVKISCKASGYTFTNYGMNWVRQAPGQGLEWMGWINTNTGEPTYTEEFKGRFVFSLDTSVTTSYLQISTLKAEDTAVYFCARDEGWFVYWGQGTLVTVSS VL: ETTLTQSPSSLSASTGDRVTITCITSTDIDDDMNWYQQKPGKAPKLLISEGNTLRPGVPSRFSGSGSGTDFTLTISSTQPEDFADYYCLQTDSVPLTFGQGTKVEIK
< 1.19 nM | 0.000159 s⁻¹ and 0.000238 s⁻¹ | > 134000 M⁻¹ s⁻¹ | hzKM5321 LV6HV0 antibody (antibody, V domains shown, Humanized; variant human IgG4 constant region (EU S228P, L235E, R409K), human kappa; also called B-08; LV6HV0) VH: QVHLVQSGSELKKPGASVKISCKASGYTFTNYGMNWVRQAPGQGLEWMGWINTNTGEPTYTEEFKGRFVFSLDTSVTTSYLQISTLKAEDTAVYFCARDEGWFVYWGQGTLVTVSS VL: ETTLTQSPSSLSVSTGDRVTITCITSTDIDDDMNWYQQKPGKPPKLLISEGNTLRPGVPSRFSSSGSGTDFTLTISSTQPEDFADYYCLQTDSVPLTFGQGTKVEIK
< 4.26 nM | 0.000543 s⁻¹ | > 127000 M⁻¹ s⁻¹ | hzKM5321 LV1bHV0 antibody (antibody, V domains shown, Humanized; variant human IgG4 constant region (EU S228P, L235E, R409K), human kappa; also called B-04; LV1bHV0) VH: QVHLVQSGSELKKPGASVKISCKASGYTFTNYGMNWVRQAPGQGLEWMGWINTNTGEPTYTEEFKGRFVFSLDTSVTTSYLQISTLKAEDTAVYFCARDEGWFVYWGQGTLVTVSS VL: ETTLTQSPSSLSASVGDRVTITCITSTDIDDDMNWYQQKPGKAPKLLISEGNTLRPGVPSRFSGSGSGTDFTLTISSLQPEDFADYYCLQTDSVPLTFGQGTKVEIK
